Reference: patent publication US7803377B2, “Anti-DLL4 antibodies and methods using same” (Genentech, Inc., priority 2006, dated 2010)
Changes are numbered by the printed parent chain. Values belong to the molecule of their own block, whether it stands above or below them.

Key:
human Delta4 (ECD5.5) = target: T1, human Delta4 (ECD5.5) (Homo sapiens, UniProt Q9NR61); experiment: Surface plasmon resonance (BIAcore-3000) binding affinity and kinetics; conditions: human DLL4-His injected over coupled antibody, 25° C.
T1 construct: DLL4-His (C-terminal His-tagged human DLL4, amino acid 1-404); His (C)
Protocol: (§1) To determine the binding affinity of the anti-DLL4 Mabs, surface plasmon resonance (SRP) measurement with a BIAcore™-3000 was used (BIAcore, Inc., Piscataway, N.J.). Briefly, carboxymethylated dextran biosensor chips (CM5, BIAcore Inc.) were activated with N-ethyl-N′-(3-dimethylaminopropyl)-carbodiimide hydrochloride (EDC) and N-hydroxysuccinimide (NHS) according to the supplier's instructions. Anti-DLL4 antibody was diluted with 10 mM sodium acetate, pH 4.8, into 5 μg/ml before injection at a flow rate of 5 μl/minute to achieve approximately 500 response units (RU) of coupled antibody. Next, IM ethanolamine was injected to block unreacted groups. For kinetics measurements, two-fold serial dilutions of either human or murine DLL4-His molecules (0.7 nM to 500 nM) were injected in PBS with 0.05% Tween™ 20 at 25° C. at a flow rate of 25 μl/min. Association rates (kon) and dissociation rates (koff) were calculated using a simple one-to-one Langmuir binding model (BIAcore Evaluation Software version 3.2). The equilibrium dissociation constant (Kd) was calculated as the ratio koff/kon.

murine Delta4 (ECD5.5) = target: T2, murine Delta4 (ECD5.5) (Mus musculus, UniProt Q9JI71); experiment: as above; conditions: murine DLL4-His injected over coupled antibody, 25° C.
T2 construct: murine Delta4 (ECD5.5); His
Protocol: as §1

VEGFR2 = experiment: Real-time quantitative RT-PCR of VEGFR2 expression in HUVECs; assay type: cell-based, human; conditions: 2-D culture of HUVECs (36 hr)
Protocol: RNA extraction and Real-time quantitative RT-PCR. Extraction of total RNA from HUVECs in 2-D culture was done using RNeasy® Mini Kit (Qiagen) as per instructions of the manufacturer. To extract total RNA from HUVECs growing in fibrin gels, fibrin gels were treated with 10× trypsin-EDTA (Gibco) for 5 min to remove the top layer fibroblasts, followed by neutralization with 10% FBS in PBS. The gel clots were then removed from tissue culture wells and subjected to centrifugation (10K for 5 min) in microtubes to remove excessive fluid. The resulting gel “pellets” were lysed with lysis buffer (RNeasy® Mini Kit), and further processed as with HUVECs in 2-D culture. The quality of RNA was assessed using RNA 6000 Nano Chips and the Agilent 2100 Bioanalyzer (Agilent Technologies). Real-time quantitative RT-PCR reactions were done in triplicate using 7500 Real Time PCR System (Applied Biosystems). Human GAPDH was used as reference gene for normalization. The expression levels are expressed as the mean (±SEM) fold mRNA changes relative to control from 3 separate determinations. The forward and reverse primer and probe sequences for VEGFR2, TGFβ2 and GAPDH were as follows.
Therefore, while VEGF can act upstream of DLL4/Notch pathway, DLL4/Notch is capable of fine-tuning the response through negatively regulating VEGFR2 expression.

HUVEC = HUVEC proliferation on Notch activation by immobilized DLL4; assay type: cell-based, human; conditions: Notch activation by immobilized DLL4 protein

T2 sequence (Q9JI71 27-405 limits assumed): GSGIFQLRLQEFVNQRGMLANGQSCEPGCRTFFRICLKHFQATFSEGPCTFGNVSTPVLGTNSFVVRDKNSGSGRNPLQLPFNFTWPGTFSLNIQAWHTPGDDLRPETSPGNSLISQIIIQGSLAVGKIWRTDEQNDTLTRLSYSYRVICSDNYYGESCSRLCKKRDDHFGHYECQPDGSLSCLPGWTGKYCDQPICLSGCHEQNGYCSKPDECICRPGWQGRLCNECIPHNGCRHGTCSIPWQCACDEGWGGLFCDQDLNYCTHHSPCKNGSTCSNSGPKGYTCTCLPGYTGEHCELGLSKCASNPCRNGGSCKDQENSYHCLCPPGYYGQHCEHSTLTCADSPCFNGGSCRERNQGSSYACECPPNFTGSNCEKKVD

koff/10^−4 (human Delta4 (ECD5.5)): 0.66 10^−4
kon/10^5 (human Delta4 (ECD5.5)): 1.8 10^5
koff10^−4 (murine Delta4 (ECD5.5)): 0.73 10^−4
kon/10^5 (murine Delta4 (ECD5.5)): 3.3 10^5
B1: YW26.14: affinity matured anti-DLL4 antibody; HVR-H1/H2/H3 SEQ ID NO:2, 3, 9; HVR-L1/L2/L3 SEQ ID NO:10, 11, 14 (antibody, V domains shown)
VH: EVQLVESGGGLVQPGGSLRLSCAASGFSFRDNWISWVRQAPGKGLEWVGVINPNSGSTDYADSVKGRFTISADTSKNTAYLQMNSLRAEDTAVYYCARDNFGGYFDYWGQGTLVTVSS
VL: DIQMTQSPSSLSASVGDRVTITCRASQDVSTAVAWYQQKPGKAPKLLIYSASFLYSGVPSRFSGSGSGTDFTLTISSLQPEDFATYYCQQSVNGPATFGQGTKVEIK

koff/10^−4 (human Delta4 (ECD5.5)): 0.67 10^−4
kon/10^5 (human Delta4 (ECD5.5)): 1.9 10^5
koff10^−4 (murine Delta4 (ECD5.5)): 0.65 10^−4
kon/10^5 (murine Delta4 (ECD5.5)): 3.6 10^5
B2: YW26.34: affinity matured anti-DLL4 antibody; HVR-H1/H2/H3 SEQ ID NO:1, 6, 9; HVR-L1/L2/L3 SEQ ID NO:10, 11, 16 (antibody, V domains shown)
VH: B1 VH with S28T, R30T, V50L, N54T, D59I
VL: B1 VL with V92Y, N93T, A96S

B3: immobilized DLL4: immobilized C-terminal His-tagged human DLL4 (amino acids 1-404) used to activate Notch in HUVECs (protein)
chain: GSGVFQLQLQEFINERGVLASGRPCEPGCRTFFRVCLKHFQAVVSPGPCTFGTVSTPVLGTNSFAVRDDSSGGGRNPLQLPFNFTWPGTFSLIIEAWHAPGDDLRPEALPPDALISKIAIQGSLAVGQNWLLDEQTSTLTRLRYSYRVICSDNYYGDNCSRLCKKRNDHFGHYVCQPDGNLSCLPGWTGEYCQQPICLSGCHEQNGYCSKPAECLCRPGWQGRLCNECIPHNGCRHGTCSTPWQCTCDEGWGGLFCDQDLNYCTHHSPCKNGATCSNSGQRSYTCTCRPGYTGVDCELELSECDSNPCRNGGSCKDQEDGYHCLCPPGYYGLHCEHSTLSCADSPCFNGGSCRERNQGANYACECPPNFTGSNCEKKVD
modifications: left off: small tags and cut ends
VEGFR2 expression on Notch activation (VEGFR2): suppressed the expression of VEGFR2
HUVEC proliferation / growth (HUVEC): significant growth inhibition
